The target of data set [1] is ZF16-MQ1 (synthetic) (UniProt P15840). The experiment in a line: cell_activity. To be noted: LL2 cells.
In data set [2] the target is ZF17-MQ1 (synthetic) (UniProt P15840). In words: cell_activity. To be noted: LL2 cells.
ZF17-MQ1 (synthetic), sequence (P15840 other isoform, or with tags, fused parts or gaps): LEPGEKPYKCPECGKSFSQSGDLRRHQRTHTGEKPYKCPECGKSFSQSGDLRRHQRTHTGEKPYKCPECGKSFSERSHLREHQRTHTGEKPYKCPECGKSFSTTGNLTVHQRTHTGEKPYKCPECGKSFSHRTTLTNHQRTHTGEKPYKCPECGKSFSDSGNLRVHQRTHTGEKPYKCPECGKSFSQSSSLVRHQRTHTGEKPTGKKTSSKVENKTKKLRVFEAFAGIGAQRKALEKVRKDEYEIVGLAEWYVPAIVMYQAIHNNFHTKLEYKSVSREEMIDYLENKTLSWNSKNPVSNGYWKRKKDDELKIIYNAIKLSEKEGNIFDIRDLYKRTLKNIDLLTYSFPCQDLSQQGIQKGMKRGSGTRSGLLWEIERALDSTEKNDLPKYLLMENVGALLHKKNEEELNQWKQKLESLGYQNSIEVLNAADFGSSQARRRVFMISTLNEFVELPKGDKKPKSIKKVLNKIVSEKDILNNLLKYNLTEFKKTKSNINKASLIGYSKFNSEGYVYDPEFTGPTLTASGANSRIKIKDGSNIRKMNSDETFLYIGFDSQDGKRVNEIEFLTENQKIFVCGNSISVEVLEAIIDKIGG

ZF16-MQ1 (synthetic), sequence (P15840 other isoform, or with tags, fused parts or gaps): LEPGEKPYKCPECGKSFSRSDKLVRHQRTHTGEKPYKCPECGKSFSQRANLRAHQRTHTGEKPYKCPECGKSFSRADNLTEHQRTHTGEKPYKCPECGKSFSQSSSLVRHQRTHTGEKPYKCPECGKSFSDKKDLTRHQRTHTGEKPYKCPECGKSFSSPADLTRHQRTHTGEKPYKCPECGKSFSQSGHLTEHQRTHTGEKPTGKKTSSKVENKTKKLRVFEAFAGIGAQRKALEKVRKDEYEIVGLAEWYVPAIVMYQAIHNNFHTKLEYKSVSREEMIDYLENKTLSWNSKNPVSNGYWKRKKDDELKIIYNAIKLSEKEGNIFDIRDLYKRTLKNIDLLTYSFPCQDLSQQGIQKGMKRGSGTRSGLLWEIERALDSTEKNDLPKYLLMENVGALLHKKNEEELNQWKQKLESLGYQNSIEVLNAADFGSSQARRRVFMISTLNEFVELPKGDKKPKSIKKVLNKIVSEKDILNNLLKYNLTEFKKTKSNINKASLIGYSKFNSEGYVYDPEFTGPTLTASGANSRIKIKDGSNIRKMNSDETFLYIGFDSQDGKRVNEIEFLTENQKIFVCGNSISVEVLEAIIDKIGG

Turning to mouse Myc genomic locus, the activity (% MYC mRNA reduction) was 74 in data set [1] and greater than 99.9 in data set [2].

For the origin of these results see patent US20240132559.
